Experimental data published in the nanobody polyreactivity screen of Harvey et al. (2022).

Test: yeast display, Sf9 membrane polyspecificity reagent, FACS + sequencing; frameworks hold sequencing errors
Procedure, shortened: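 A nanobody's polyreactivity label depends on the gate it was sorted from. Yeast display cells were stained with 10% biotinylated, detergent-solubilized Sf9 membrane reagent for 1 hour at 4 °C, enriched on streptavidin microbeads and sorted by FACS. The low and high (top ~1%) gates were set on anti-HA fluorescence for expression and streptavidin fluorescence for reagent binding.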

Sequence	polyreactivity (PSR sort gate)
QVQLVESGGGLVQAGGSLRLSCAASGLTFGFNAMGWYRQAPGKERELVAAISSRGGSTYYADSVKGRFTISRDNAKNTVYLQMNSLKPEDTAVYYCNARSVYDGFWYNYWGQGTQVTVSS	low polyreactivity
QVQLVESGGGLVQAGGSLRLSCAASGLTFGFYARGWYTQAPGKERQLVPRISNGGSTNYADSVKGRFTISRDNAKNTVYLQMNSLKPEDTAVYYCNAGLVLPPPGAYIVYFDQMDYWGQGTQVTVSS	low polyreactivity
QVQLVESGGGLVQAGGSLRLSCAASGLTFGGNAMGWYRQAPGKERELVAGISWSGGNTNYADSVKGRFTISRDNAKNTVYLQMNSLKPEDNAVYYCNKATNLSGGYDSWGQGTQVTVSS	low polyreactivity
QVQLVESGGGLVQAGGSLRLSCAASGLTFGGYVMGWYRQAPGKERELVAAISGSGGRTYYADSVKGRFTISRDNAKNTVYLQRNSLKPEDTAVYDCARPPRGPPRGYYWGQGTQVTVSS	high polyreactivity
QVQLVESGGGLVQAGGSLRLSCAASGLTFGRNAMGWYRQAPGKERELVAAIRWSGGSTYYADSVKGRFTISRDNAKNTVYLQMNSLKPEDTAVYYCAATRVLRPVGTHYYYWGQGTQVTVSS	high polyreactivity
QVQLVESGGGLVQAGGSLRLSCAASGLTFGRYAMGWYRQAPGKERELVAAITASGGITYYADSVKGRFTISRDNAKNTVYLQMNSLKPEDTAVYYCAADGEVKYDYWGQGTQVTVSS	low polyreactivity
QVQLVESGGGLVQAGGSLRLSCAASGLTFGSYAMGWYRQAPGKERELVAAISRSGITYYADSVKGRFTISRDNAKNTVYLQMNSLKPEDTAVYYWAVTQNSKSTKIRPDQGDYGGQGTQVTVSS	high polyreactivity
QVQLVESGGGLVQAGGSLRLSCAASGLTFGVYAMGWSRQAPGKERELVAAIDLSDDITYYADSVKGRFTISRDNAKNTVYLQMNSLKPEDTAVYYSAAEYYLYSTYTVSYWKYDYWGQGTQVTVSS	high polyreactivity
QVQLVESGGGLVQAGGSLRLSCAASGLTFGYYAMGWYRQAPGKERELVAGISGSGGSTYYADSVKGRFTISRDNAKNTLYLQMNSLKPEDTAVYYCNAEARYTGFAYSYFNSDYWGQGTQVTVSS	low polyreactivity
QVQLVESGGGLVQAGGSLRLSCAASGLTFGYYAMGWYRQAPGKERELVAVISGGGGTHYADSVKGRFTISRDNAKITVYLQMNSLKPEDTAVYYCAARYRAQQIARYYYWGQGTQVTVSS	high polyreactivity
QVQLVESGGGLVQAGGSLRLSCAASGLTFGYYDMGRYRQAPGKERELVAAITSGGTTNYADSVKGRFTISRDNAKNTVYLQMNSQKPEDNAVYYCNADYYSRIVGVRIYDYWGQGTQVTVSS	low polyreactivity
QVQLVESGGGLVQAGGSLRLSCAASGLTFIHYAMGWYRQAPGKEREFVAAISTNSGSTYYADSVKGRFTISRDNAKNTVYLQMNSLKPEDTAVYYCAARGLRWRIDGEYWGQGTQVTVSS	high polyreactivity
QVQLVESGGGLVQAGGSLRLSCAASGLTFIIYAMGWYRQAPGKERELVARISSGGRTNYADSVKGRFTISRDYAKNTVYIQMNSLTPEDTAVYYCAAAFVYPYRHYYRYDYWGQATQVTVSS	high polyreactivity
QVQLVESGGGLVQAGGSLRLSCAASGLTFKANAMGWYRQAPGKERELVAAITWSGTSTYYADSVKGRFTISRDNAKNTVYLQMNSLKPEDTAVYYCNKPYDVWYHDYDYWGQGTQVTVSS	low polyreactivity
QVQLVESGGGLVQAGGSLRLSCAASGLTFKFNAMGWYIQAPGKERELVADISFGGDDTYYSDSVKGRFTISRDNAKNTVYLQMNSQKPEDNAVYYCAAEYDTWGYSGRDYWGQGTQVTVSS	low polyreactivity
QVQLVESGGGLVQAGGSLRLSCAASGLTFKRYAMGWYRQAPGKEREFVAAISAGGASTHYADSVKGRFTISRDNAKNTVYLQMNSLKPEDTAVYYCATDYRTFRPSFGYWGQGTQVTVSS	low polyreactivity
QVQLVESGGGLVQAGGSLRLSCAASGLTFKRYVMGWYRQAPGKERELVAAITVSGGNTYYADSVKGRFTISRDNAKNTVYLQMNSLKPEDTAVYYCNADAGAIYYRRYHFYYWGQGTQVTVSS	low polyreactivity
QVQLVESGGGLVQAGGSLRLSCAASGLTFKSNAMGWYRPAPGKERELVASISKRGGTTYYADSVKGRFTISRDNAKNTVYLQMNSLKPEDTAVYYCAAQSRATTYSWWTGSDYWGQGTQVTVSS	high polyreactivity
QVQLVESGGGLVQAGGSLRLSCAASGLTFKSYAMGWYRQAPGKERELVAAISWRGGRTYYADSVKGRFTISRDNAKNTVYLQMNSLKPEDTAVYYCNARSQQWWLSRYNYWGQGSQVTVSS	high polyreactivity
QVQLVESGGGLVQAGGSLRLSCAASGLTFKVYDMGWYRQAPGKERELVAAISWSGGSTYYADSVKGRFTISRDNAKNTVYLQMNSLKPEDTAVYFCAVEPSYYVVFFPYEYWGQGTQVTVSS	low polyreactivity
QVQLVESGGGLVQAGGSLRLSCAASGLTFKYYAMGWYRQAPGKERELVAAISWNGDRTYYADSVKGRFTISRDNAKNTVYLQMNSLKPEDTAVYYCATKFYFSTSIAGGYWGQGTQVTVSS	high polyreactivity
QVQLVESGGGLVQAGGSLRLSCAASGLTFLNNAMGWYRQAPGKERELVAAISDGGSTNYADSVKGRFTISRDNAKNTVYLQMNSLKPEDTAVYYCAARVRGDYGHKYYQFDYWGQGTQVTVSS	low polyreactivity

Sequence	polyreactivity (PSR sort gate)
QVQLVESGGGLVQAGGSLRLSCAASGLTFLWYAMGWYRQAPGKERELVAAITSGGRTKYADSVKGRFTISRDNAKNTVYLQMNSLKPEDTAVYYCAAYTQWWGYDYWGQGTLVTVSS	high polyreactivity
QVQLVESGGGLVQAGGSLRLSCAASGLTFLWYAMGWYRQAPGKERELVAAITSGGRTKYADSVKGRFTISRDNAKNTVYLQMNSLKPEDTAVYYCAKRGGGTTYSRKHDYWGQGTQVTVSS	high polyreactivity
QVQLVESGGGLVQAGGSLRLSCAASGLTFLYYAMGWYRQAPGKEREFVAAIDISGGSTYYADSVKGRFTISRDNAKKTVYLQMYSLKPEDTAVYYCAVEPWYYLAGRSQYDYWGQGTQVTVSS	low polyreactivity
QVQLVESGGGLVQAGGSLRLSCAASGLTFLYYAMGWYRQAPGKERELVAAITGSGGTTNYADSVKGRFTISRDNAKNTVYLQMNSLKPEDTAVYYCAARGRKYYTSLGYYYWGQGTQVTVSS	high polyreactivity
QVQLVESGGGLVQAGGSLRLSCAASGLTFNSYDMGWYRQAPGKERELVAAISSGGVLPNYADSVKGRFTISRDNAKNTVYLQMNSLNPEDTAVYYCNVYSWPYDYWGQGTQVTVSS	low polyreactivity
QVQLVESGGGLVQAGGSLRLSCAASGLTFNVYAMGWYRQAPGKERELVASITKRGGSTYYADSVKGRFTISRDNAKNTVYLEMNSLKPEDTAVYYCAADGLTGSKYRATGYYWGQGTQVTVSS	high polyreactivity
QVQLVESGGGLVQAGGSLRLSCAASGLTFNYYAMGWYRQAPGKERELVAAISSSTGSTYYADSVKGRFTISRDNAKYTVYLQMNSLKPEDTAVYYCAAVRTKAYVSRTSQSGYWGQGTQVTVSS	high polyreactivity
QVQLVESGGGLVQAGGSLRLSCAASGLTFNYYAMGWYRQPPGKESELVAAITSSGGRTYYADSVKGRFTISRDNAKNTGYLQMNSLKPEDTAVYYCNTVSYRLGAVWFSYDYWGQGTQVTVSS	high polyreactivity
QVQLVESGGGLVQAGGSLRLSCAASGLTFPFYAMGWYRQAPGKERELVAAITGSGGITYYADSVKGRFTISRDNAKNTVYLQMNSLKPEETAVYYCAFDYTYYTSFVPLFGFDYWGQGTQVTVSS	low polyreactivity
QVQLVESGGGLVQAGGSLRLSCAASGLTFPLYAMGWYRQAPGKEREFVAAITVSGVSTSYADSEKGRFTISRDIAKITVYLQMNSLKPEDTAVYYCAADYYIWTYWDVYYWGQGTQVTVSS	high polyreactivity
QVQLVESGGGLVQAGGSLRLSCAASGLTFPSYAMGWYRQAPGKERELVASISSGGSTTYADSVKGRFTISRDNAKNTVYLQMNSLKPEDTAVYYCAAGRYVLRRGYYYWGQGTQVTVSS	high polyreactivity
QVQLVESGGGLVQAGGSLRLSCAASGLTFPWYAMGWYRQAPGKERELVAGISWSGGSTYYADSVKGRFTNSRDNAKNTVYLQMNSLKPEDTAVYYCKLVKTTSTLGKRRYDYWGQGTQVTVSS	high polyreactivity
QVQLVESGGGLVQAGGSLRLSCAASGLTFPYYAMGWYRKAPGKERELVAGISDSGGSTYYADSVKGRFTISRDNAKNTVYLQMNSLKPEDTAVYYCAAQGVDSYYENDYWGQGTQVTVSS	high polyreactivity
QVQLVESGGGLVQAGGSLRLSCAASGLTFPYYAMGWYRQAPGKEREFVAAISRGGGRTSYADSVKGRFTISRDNAKNTVYLQMNSLKPEDTAVYYCAADDPGWYSDLYYYWGLGTQVTVSS	high polyreactivity
QVQLVESGGGLVQAGGSLRLSCAASGLTFPYYAMGWYRQAPGKERELVAAISGGGRTYYADSVMGRFTISRDNAKNTVYLQMNSLKPEDTAVYYCAPFHVGRYTGTVTDGYDYWGQGTQVTVSS	high polyreactivity
QVQLVESGGGLVQAGGSLRLSCAASGLTFQENAMGWYRQAPGKERELVASITPIGGSTYYADSVKGRFTISRDNAKNTVYLQMKSLKPEDTAVYYCAARSPIYATYGHDYWGQATQVTVSS	low polyreactivity
QVQLVESGGGLVQAGGSLRLSCAASGLTFQENGMGGYRQAPGKERELVASITTIGGSTYYADSVKGRFTISRDNAKNTVYLQMKSLKPEDTAVYYCAALSPIYATYGHDYWGQGTQVTVSS	low polyreactivity
QVQLVESGGGLVQAGGSLRLSCAASGLTFQSYVMGWYRPAPGKERELVAAISWSGTRTYFADSVKGRFTISRDNAKNTVYLQMYSLKPEDTAVYSCAADFYTWYEERYWSYNYWGQGTQVTVSS	high polyreactivity
QVQLVESGGGLVQAGGSLRLSCAASGLTFQWYAMGWYRQAPGKERELVAAISSRGGSTYYADSVKGRFTISRDNAKNTVYLQMNSLKPVDTAVYYCAVYTIGYLAWYQKFDYWGQGTQVTVSS	high polyreactivity
QVQLVESGGGLVQAGGSLRLSCAASGLTFRGNVMGWYRQAPGKERELVAAISRSGNTYYADSVKGRFTISRDNAKNTVYLQMNSLKPEDTAVYYCAAQSVRWYSSFKYYYWGQGTQVTVSS	high polyreactivity
QVQLVESGGGLVQAGGSLRLSCAASGLTFRKNAMGWYRQAPGKERELVAGISSGGSTYYADSVKGRFTISRDNAKNTVYLQMNSLKPEDTAVYYCGANALRTMYYWGQGTQVNVSS	high polyreactivity
